Assay results taken from patent US20240327497A1.
Numbering of substitutions follows the chain as printed. Names may count otherwise. “And” between values parts separate entries of the source, which are not always exact repeats. Equal entries are not always repeated.

B1: canine IgGB Fc (CH2-CH3) A254T with N-terminal SASA tag (Fc fusion, part only; not given: SASA tag, not shown: another chain or arm of the molecule; small tags and cut ends)
Fc: APEMLGGPSVFIFPPKPKDTLLITRTPEVTCVVVDLDPEDPEVQISWFVDGKQMQTAKTQPREEQFNGTYRVVSVLPIGHQDWLKGKQFTCKVNNKALPSPIERTISKARGQAHQPSVYVLPPSREELSKNTVSLTCLIKDFFPPDIDVEWQSNGQQEPESKYRTTPPQLDEDGSYFLYSKLSVDKSRWQRGDTFICAVMHEALHNHYTQESLSHSPGK
B2: wild-type canine IgGB Fc (CH2-CH3) with N-terminal SASA tag (Fc fusion, part only; not given: SASA tag, not shown: another chain or arm of the molecule; small tags and cut ends)
Fc: B1 Fc with T24A
B3: canine IgGB Fc (CH2-CH3) D378V with N-terminal SASA tag (Fc fusion, part only; not given: SASA tag, not shown: another chain or arm of the molecule; small tags and cut ends)
Fc: B1 Fc with T24A, D148V
B4: canine IgGB Fc (CH2-CH3) A426Y with N-terminal SASA tag (Fc fusion, part only; not given: SASA tag, not shown: another chain or arm of the molecule; small tags and cut ends)
Fc: B1 Fc with T24A, A198Y
B5: canine IgGB Fc (CH2-CH3) D312P with N-terminal SASA tag (Fc fusion, part only; not given: SASA tag, not shown: another chain or arm of the molecule; small tags and cut ends)
Fc: B1 Fc with T24A, D82P
B6: canine IgGB Fc (CH2-CH3) A426H with N-terminal SASA tag (Fc fusion, part only; not given: SASA tag, not shown: another chain or arm of the molecule; small tags and cut ends)
Fc: B1 Fc with T24A, A198H
B7: canine IgGB Fc (CH2-CH3) A426F with N-terminal SASA tag (Fc fusion, part only; not given: SASA tag, not shown: another chain or arm of the molecule; small tags and cut ends)
Fc: B1 Fc with T24A, A198F
B8: canine IgGB Fc (CH2-CH3) E380A with N-terminal SASA tag (Fc fusion, part only; not given: SASA tag, not shown: another chain or arm of the molecule; small tags and cut ends)
Fc: B1 Fc with T24A, E150A
B9: anti-NGF canine IgGB antibody, Fc variant A426H + N434R (antibody, part only; not given: Anti-NGF variable domains, not shown: another chain or arm of the molecule; small tags and cut ends)
Fc: B1 Fc with T24A, A198H, N206R
B10: anti-NGF canine IgGB antibody with wild-type IgGB Fc (antibody, part only; not given: Anti-NGF variable domains, not shown: another chain or arm of the molecule; small tags and cut ends)
Fc: B1 Fc with T24A
B11: canine IgGB Fc (CH2-CH3) T250E with N-terminal SASA tag (Fc fusion, part only; not given: SASA tag, not shown: another chain or arm of the molecule; small tags and cut ends)
Fc: B1 Fc with T20E, T24A
B12: canine IgGB Fc (CH2-CH3) T250Q with N-terminal SASA tag (Fc fusion, part only; not given: SASA tag, not shown: another chain or arm of the molecule; small tags and cut ends)
Fc: B1 Fc with T20Q, T24A
B13: canine IgGB Fc (CH2-CH3) T286W with N-terminal SASA tag (Fc fusion, part only; not given: SASA tag, not shown: another chain or arm of the molecule; small tags and cut ends)
Fc: B1 Fc with T24A, T56W

Target: canine FcRn (FcRn large subunit with canine beta-2-microglobulin) (canine)
Experiment: SPR pH 5.5, SASA-Fc captured on BSA, FcRn 200 nM

Kd | koff | kon | Binder
2290 nM and 1340 nM | 0.375 s⁻¹ and 0.433 s⁻¹ | 163000 M⁻¹ s⁻¹ and 323000 M⁻¹ s⁻¹ | B1
2050 nM and 2990 nM | 0.31 s⁻¹ and 0.315 s⁻¹ | 151000 M⁻¹ s⁻¹ and 105000 M⁻¹ s⁻¹ | B2

Target: canine FcRn (FcRn large subunit with canine beta-2-microglobulin) (canine)
Experiment: SPR pH 5.5, SASA-Fc captured on BSA, FcRn 200 nM
Remark: another data set of the same source

Kd | koff | kon | Binder
693 nM and 873 nM | 0.159 s⁻¹ and 0.16 s⁻¹ | 229000 M⁻¹ s⁻¹ and 184000 M⁻¹ s⁻¹ | B3
502 nM and 784 nM | 0.169 s⁻¹ and 0.207 s⁻¹ | 336000 M⁻¹ s⁻¹ and 264000 M⁻¹ s⁻¹ | B2

Target: canine FcRn (FcRn large subunit with canine beta-2-microglobulin) (canine)
Experiment: SPR pH 5.5, SASA-Fc captured on BSA, FcRn 200 nM
Remark: another data set of the same source

Kd | koff | kon | Binder
146 nM and 143 nM | 0.109 s⁻¹ and 0.112 s⁻¹ | 750000 M⁻¹ s⁻¹ and 785000 M⁻¹ s⁻¹ | B4
291 nM and 439 nM | 0.0894 s⁻¹ and 0.11 s⁻¹ | 307000 M⁻¹ s⁻¹ and 251000 M⁻¹ s⁻¹ | B5
160 nM and 153 nM | 0.135 s⁻¹ and 0.14 s⁻¹ | 843000 M⁻¹ s⁻¹ and 915000 M⁻¹ s⁻¹ | B6
1010 nM and 673 nM | 0.195 s⁻¹ and 0.297 s⁻¹ | 194000 M⁻¹ s⁻¹ and 442000 M⁻¹ s⁻¹ | B2
182 nM and 181 nM | 0.143 s⁻¹ and 0.147 s⁻¹ | 786000 M⁻¹ s⁻¹ and 811000 M⁻¹ s⁻¹ | B7

Target: canine FcRn (FcRn large subunit with canine beta-2-microglobulin) (canine)
Experiment: SPR pH 5.5, SASA-Fc captured on BSA, FcRn 200 nM
Remark: another data set of the same source

Kd | koff | kon | Binder
1320 nM and 1570 nM | 0.223 s⁻¹ and 0.239 s⁻¹ | 168000 M⁻¹ s⁻¹ and 152000 M⁻¹ s⁻¹ | B8
1560 nM and 754 nM | 0.179 s⁻¹ and 0.182 s⁻¹ | 115000 M⁻¹ s⁻¹ and 242000 M⁻¹ s⁻¹ | B2

Target: canine FcRn (FcRn large subunit with canine beta-2-microglobulin) (canine)
Experiment: SPR pH 6.0, IgG coupled to CM5, FcRn 200-3200 nM

Kd [nM] | koff [s⁻¹] | kon [M⁻¹ s⁻¹] | Binder
2480 | 0.264 | 107000 | B9
3370 | 0.385 | 114000 | B10

Target: canine FcRn (FcRn large subunit with canine beta-2-microglobulin) (canine)
Experiment: SPR pH 5.5, SASA-Fc captured on BSA, FcRn 200 nM
Remark: another data set of the same source

Kd | koff | kon | Binder
2480 nM and 1660 nM | 0.284 s⁻¹ and 0.287 s⁻¹ | 114000 M⁻¹ s⁻¹ and 172000 M⁻¹ s⁻¹ | B11
2590 nM and 2840 nM | 0.258 s⁻¹ and 0.268 s⁻¹ | 99600 M⁻¹ s⁻¹ and 94300 M⁻¹ s⁻¹ | B12
8990 nM and 3110 nM | 0.347 s⁻¹ and 0.354 s⁻¹ | 38700 M⁻¹ s⁻¹ and 114000 M⁻¹ s⁻¹ | B2

Target: canine FcRn (FcRn large subunit with canine beta-2-microglobulin) (canine)
Experiment: SPR pH 6.0, SASA-Fc captured on BSA, FcRn 200 nM

Kd | koff | kon | Binder
127 nM and 118 nM | 0.0982 s⁻¹ and 0.112 s⁻¹ | 774000 M⁻¹ s⁻¹ and 945000 M⁻¹ s⁻¹ | B13
939 nM and 999 nM | 0.14 s⁻¹ and 0.144 s⁻¹ | 149000 M⁻¹ s⁻¹ and 144000 M⁻¹ s⁻¹ | B2

Target: canine FcRn (FcRn large subunit with canine beta-2-microglobulin) (canine)
Experiment: SPR pH 5.5, SASA-Fc captured on BSA, FcRn 200 nM
Remark: another data set of the same source

Kd | koff | kon | Binder
1710 nM and 2660 nM | 0.288 s⁻¹ and 0.326 s⁻¹ | 168000 M⁻¹ s⁻¹ and 123000 M⁻¹ s⁻¹ | B2

Target: canine FcRn (FcRn large subunit with canine beta-2-microglobulin) (canine)
Experiment: SPR pH 5.5, SASA-Fc captured on BSA, FcRn 200 nM
Remark: another data set of the same source

Kd | koff | kon | Binder
955 nM and 1310 nM | 0.181 s⁻¹ and 0.209 s⁻¹ | 190000 M⁻¹ s⁻¹ and 159000 M⁻¹ s⁻¹ | B2

Target: canine FcRn (FcRn large subunit with canine beta-2-microglobulin) (canine)
Experiment: SPR pH 5.5, SASA-Fc captured on BSA, FcRn 400 nM; average of 12 wild-type runs

Kd [nM] | Binder
566 | B2

Target: canine FcRn (FcRn large subunit with canine beta-2-microglobulin) (canine)
Experiment: SPR pH 5.5, SASA-Fc captured on BSA, FcRn 200 nM
Remark: another data set of the same source

Kd | koff | kon | Binder
884 nM and 862 nM | 0.21 s⁻¹ and 0.218 s⁻¹ | 237000 M⁻¹ s⁻¹ and 253000 M⁻¹ s⁻¹ | B2

Target: canine FcRn (FcRn large subunit with canine beta-2-microglobulin) (canine)
Experiment: SPR pH 5.5, SASA-Fc captured on BSA, FcRn 400 nM

Kd | WT KD Avg/Variant KD | koff | kon | Binder
618 nM and 747 nM | 0.76 and 0.92 | 0.369 s⁻¹ and 0.18 s⁻¹ | 598000 M⁻¹ s⁻¹ and 241000 M⁻¹ s⁻¹ | B8

Target: canine FcRn (FcRn large subunit with canine beta-2-microglobulin) (canine)
Experiment: SPR pH 5.5, SASA-Fc captured on BSA, FcRn 100-800 nM

Kd [nM] | koff [s⁻¹] | kon [M⁻¹ s⁻¹] | Binder
389 | 0.102 | 262000 | B4
343 | 0.106 | 308000 | B6
3150 | 0.527 | 168000 | B2
522 | 0.132 | 253000 | B7

Target: canine FcRn (FcRn large subunit with canine beta-2-microglobulin) (canine)
Experiment: SPR pH 6.0, SASA-Fc captured on BSA, FcRn 100-800 nM

Kd [nM] | koff [s⁻¹] | kon [M⁻¹ s⁻¹] | Binder
565 | 0.195 | 345000 | B13
1820 | 0.417 | 230000 | B2

Target: canine FcRn (FcRn large subunit with canine beta-2-microglobulin) (canine)
Experiment: SPR pH 5.9, IgG coupled to C1 chip, steady state fit

Kd [nM] | Binder
951 | B10

Target: canine FcRn (FcRn large subunit with canine beta-2-microglobulin) (canine)
Experiment: SPR pH 5.5, SASA-Fc captured on BSA, FcRn 200 nM
Remark: another data set of the same source

Kd | koff | kon | Binder
639 nM and 692 nM | 0.17 s⁻¹ and 0.171 s⁻¹ | 267000 M⁻¹ s⁻¹ and 247000 M⁻¹ s⁻¹ | B2
